{
  "source": "the RNAGym collection of RNA variant scans (doi:10.1021/acssynbio.7b00057)",
  "parents": {"B1": {"name": "Pistol ribozyme (parent)", "chain": "GGGUCGUUGUUCCAUAAUCGCGUGGAUAUGGCACGCAAGUUUCUACCGGGCACCGUAAAUGUCCGACUGGAGCCGUUCGGGCGGCUAUAAACAGACCUCAGGCCCGAAGCGUGGCGGCACCUGCCGCCGGUGGUAAAAAAGAUCGGAAGAGCACACGUCU"}},
  "data": [
    {"variants_of": "B1", "assay": "aptazyme ON/OFF ratio, guanine; higher = stronger switching; co-transcriptional cleavage with and without guanine", "values": [
      {"variant": "U7G G9C U10C U11G C12A", "aptazyme ON/OFF ratio": 1.14},
      {"variant": "U7G G9C U10G U11A C12U C13A", "aptazyme ON/OFF ratio": 1.17},
      {"variant": "U7G G9C U10G U11A C12U C13G", "aptazyme ON/OFF ratio": 1.28},
      {"variant": "U7G G9C U10G U11A C12U C13U", "aptazyme ON/OFF ratio": 1.23},
      {"variant": "U7G G9U U10A U11G C12A", "aptazyme ON/OFF ratio": 1.13},
      {"variant": "U7G G9U U10A U11G C12U", "aptazyme ON/OFF ratio": 1.4},
      {"variant": "U7G G9U U10A U11G C12G", "aptazyme ON/OFF ratio": 1.26},
      {"variant": "U7G G9C U10C", "aptazyme ON/OFF ratio": 2.77},
      {"variant": "U7G G9C U10G", "aptazyme ON/OFF ratio": 1.89},
      {"variant": "U7G G9C U10G U11A C12A", "aptazyme ON/OFF ratio": 1.18},
      {"variant": "U7G G9C U10G U11A C12U", "aptazyme ON/OFF ratio": 1.19},
      {"variant": "U7G G9C U10G U11A C12G", "aptazyme ON/OFF ratio": 1.28},
      {"variant": "U7G G9U U10A U11A", "aptazyme ON/OFF ratio": 3.18},
      {"variant": "U7G G9U U10A U11C", "aptazyme ON/OFF ratio": 1.17},
      {"variant": "U7G G9U U10A U11G", "aptazyme ON/OFF ratio": 3.03},
      {"variant": "U7G G9C U10G U11C C12U C13A", "aptazyme ON/OFF ratio": 1.29},
      {"variant": "U7G G9C U10G U11C C12U C13G", "aptazyme ON/OFF ratio": 1.26},
      {"variant": "U7G G9C U10G U11C C12U C13U", "aptazyme ON/OFF ratio": 1.19},
      {"variant": "U7G G9U U10A C12G", "aptazyme ON/OFF ratio": 1.59},
      {"variant": "U7G G9U U10A C12U", "aptazyme ON/OFF ratio": 1.54},
      {"variant": "U7G G9U U10A C12A", "aptazyme ON/OFF ratio": 1.65},
      {"variant": "U7G G9C U11A C12G C13G", "aptazyme ON/OFF ratio": 1.23},
      {"variant": "U7G G9C U11A C12G C13U", "aptazyme ON/OFF ratio": 1.36},
      {"variant": "U7G G9C U11A C12G C13A", "aptazyme ON/OFF ratio": 1.2},
      {"variant": "U7G G9C U10C U11A C13U", "aptazyme ON/OFF ratio": 1.25},
      {"variant": "U7G G9C U10C U11A C13G", "aptazyme ON/OFF ratio": 1.22},
      {"variant": "U7G G9C U10C U11A C13A", "aptazyme ON/OFF ratio": 1.24},
      {"variant": "U7G G9C U11C", "aptazyme ON/OFF ratio": 2.53},
      {"variant": "U7G G9C U11G", "aptazyme ON/OFF ratio": 1.48},
      {"variant": "U7G G9C U11A", "aptazyme ON/OFF ratio": 2.57},
      {"variant": "U7G G9C U10G U11C C12U", "aptazyme ON/OFF ratio": 1.28},
      {"variant": "U7G G9C U10G U11C C12A", "aptazyme ON/OFF ratio": 1.69},
      {"variant": "U7G G9C U10G U11C C12G", "aptazyme ON/OFF ratio": 1.32},
      {"variant": "U7G G9C U10G C12A C13A", "aptazyme ON/OFF ratio": 1.23},
      {"variant": "U7G G9C U10G C12A C13U", "aptazyme ON/OFF ratio": 1.25},
      {"variant": "U7G G9C U10G C12A C13G", "aptazyme ON/OFF ratio": 1.11},
      {"variant": "U7G G9C U11G C12G C13G", "aptazyme ON/OFF ratio": 1.36},
      {"variant": "U7G G9C U11G C12G C13A", "aptazyme ON/OFF ratio": 1.17},
      {"variant": "U7G G9C U11G C12G C13U", "aptazyme ON/OFF ratio": 1.29},
      {"variant": "U7G G9C U10C U11G C12A C13A", "aptazyme ON/OFF ratio": 1.09},
      {"variant": "U7G G9C U10C U11G C12A C13G", "aptazyme ON/OFF ratio": 1.13},
      {"variant": "U7G G9C U10C U11G C12A C13U", "aptazyme ON/OFF ratio": 1.08},
      {"variant": "U7G G9C U10G U11C C12G C13A", "aptazyme ON/OFF ratio": 1.27},
      {"variant": "U7G G9C U10G U11C C12G C13U", "aptazyme ON/OFF ratio": 1.21},
      {"variant": "U7G G9C U10G U11C C12G C13G", "aptazyme ON/OFF ratio": 1.07},
      {"variant": "U7G G9C U10C C13A", "aptazyme ON/OFF ratio": 1.14},
      {"variant": "U7G G9C U10C C13G", "aptazyme ON/OFF ratio": 1.09},
      {"variant": "U7G G9C U10C C13U", "aptazyme ON/OFF ratio": 1.47},
      {"variant": "U7G G9C U11A C12A C13G", "aptazyme ON/OFF ratio": 1.27},
      {"variant": "U7G G9C U11A C12A C13A", "aptazyme ON/OFF ratio": 1.35},
      {"variant": "U7G G9C U11A C12A C13U", "aptazyme ON/OFF ratio": 1.52},
      {"variant": "U7G G9U U10A U11A C13G", "aptazyme ON/OFF ratio": 1.18},
      {"variant": "U7G G9U U10A U11A C13U", "aptazyme ON/OFF ratio": 1.39},
      {"variant": "U7G G9U U10A U11A C13A", "aptazyme ON/OFF ratio": 1.28},
      {"variant": "U7G G9C U10G C13G", "aptazyme ON/OFF ratio": 1.23},
      {"variant": "U7G G9C U10G C13U", "aptazyme ON/OFF ratio": 1.36},
      {"variant": "U7G G9C U10G C13A", "aptazyme ON/OFF ratio": 1.41},
      {"variant": "U7G G9C U10C U11G C13G", "aptazyme ON/OFF ratio": 1.17},
      {"variant": "U7G G9C U10C U11G C13U", "aptazyme ON/OFF ratio": 1.27},
      {"variant": "U7G G9C U10C U11G C13A", "aptazyme ON/OFF ratio": 1.19},
      {"variant": "U7G G9U C12A C13U", "aptazyme ON/OFF ratio": 1.14},
      {"variant": "U7G G9U C12A C13A", "aptazyme ON/OFF ratio": 1.46},
      {"variant": "U7G G9U C12A C13G", "aptazyme ON/OFF ratio": 1.33},
      {"variant": "U7G G9C U11G C12A C13U", "aptazyme ON/OFF ratio": 1.47},
      {"variant": "U7G G9C U11G C12A C13A", "aptazyme ON/OFF ratio": 1.21},
      {"variant": "U7G G9C U11G C12A C13G", "aptazyme ON/OFF ratio": 1.31},
      {"variant": "U7G G9C U10G U11A C12G C13U", "aptazyme ON/OFF ratio": 1.28},
      {"variant": "U7G G9C U10G U11A C12G C13A", "aptazyme ON/OFF ratio": 1.14},
      {"variant": "U7G G9C U10G U11A C12G C13G", "aptazyme ON/OFF ratio": 1.18},
      {"variant": "U7G G9C U10A U11G C12A C13G", "aptazyme ON/OFF ratio": 1.11},
      {"variant": "U7G G9C U10A U11G C12A C13U", "aptazyme ON/OFF ratio": 1.14},
      {"variant": "U7G G9C U10A U11G C12A C13A", "aptazyme ON/OFF ratio": 1.07},
      {"variant": "U7G G9C U10A U11G C12A", "aptazyme ON/OFF ratio": 1.15},
      {"variant": "U7G G9C U10A U11G C12U", "aptazyme ON/OFF ratio": 1.43},
      {"variant": "U7G G9C U10A U11G C12G", "aptazyme ON/OFF ratio": 1.41},
      {"variant": "U7G G9U U10A U11G C12A C13G", "aptazyme ON/OFF ratio": 1.11},
      {"variant": "U7G G9U U10A U11G C12A C13A", "aptazyme ON/OFF ratio": 1.11},
      {"variant": "U7G G9U U10A U11G C12A C13U", "aptazyme ON/OFF ratio": 1.12},
      {"variant": "U7G G9U U10A U11G C12U C13G", "aptazyme ON/OFF ratio": 1.12},
      {"variant": "U7G G9U U10A U11G C12U C13A", "aptazyme ON/OFF ratio": 1.23},
      {"variant": "U7G G9U U10A U11G C12U C13U", "aptazyme ON/OFF ratio": 1.27},
      {"variant": "U7G G9C U10G U11G C12U C13U", "aptazyme ON/OFF ratio": 1.24},
      {"variant": "U7G G9C U10G U11G C12U C13A", "aptazyme ON/OFF ratio": 1.15},
      {"variant": "U7G G9C U10G U11G C12U C13G", "aptazyme ON/OFF ratio": 1.1}
    ]}
  ]
}
